How the values were obtained:
[1] = tested on: neonatal rat cardiomyocytes (NRCM); assay: Contractile activity of neonatal rat cardiomyocytes; format: cell-based; details: in the presence of isoprenaline (50 nM), 33° C., beats per minute
Method: NRCM were cultured for 24 h and transduced as indicated with a control virus (LacZ) or a virus encoding RKIP-wt and/or treated with rituximab as indicated. The spontaneous contractions were measured at 33° C. for one minute and normalized for each experiment to LacZ under unstimulated conditions. NRCM were then stimulated with isoproterenol (50 nM) and after 2 min contractions were counted again. SEM; *, p<0.0001, n=5
Neonatal rat cardiomyocytes were isolated as described (Lorenz et al. Nature 2003, 426:574-579; Vidal et al., Cardiovasc. Res. 2012, 96:255-264). Cardiomyocytes were transduced by adenoviruses or treated with indicated antibodies. To monitor the contractile activity of cardiomyocytes, live cells were examined on a Zeiss Axiovert 135 microscope.

[2] = tested on: neonatal rat cardiac fibroblasts; assay: [3H]Thymidine incorporation in neonatal rat fibroblasts; format: cell-based; details: adenovirally transduced Flag-RKIP, 0.1% FCS, 96 h

B1: RKIP: Raf kinase inhibitor protein, overexpressed in cells by adenoviral transduction (protein, UniProt P30086 2-187, looked up)
Phosphatidylethanolamine-bindi …: PVDLSKWSGPLSLQEVDEQPQHPLHVTYAGAAVDELGKVLTPTQVKNRPTSISWDGLDSGKLYTLVLTDPDAPSRKDPKYREWHHFLVVNMKGNDISSGTVLSDYVGSGPPKGTGLHRYVWLVYEQDRPLKCDEPILSNRSGDHRGKFKVASFRKKYELRAPVAGTCYQAEWDDYVPKLYEQLSGK
modifications: Flag tag
[1]
  NRCM contractility: increased NRCM contractility
[2]
  proliferation ([3H]thymidine incorporation): minor but significant anti-proliferative effect

— US20180179292A1, “RKIP AGONISM IN THE TREATMENT AND PREVENTION OF HEART FAILURE” (Leibniz-Institut für analytische Wissenschaften- ISAS-e.V., priority 2015, published 2018)
